Assays:
Assay in all cases: cell-based or functional assay
[1] = target: T1, Soli E2 (Solenopsis invicta)
T1 sequence: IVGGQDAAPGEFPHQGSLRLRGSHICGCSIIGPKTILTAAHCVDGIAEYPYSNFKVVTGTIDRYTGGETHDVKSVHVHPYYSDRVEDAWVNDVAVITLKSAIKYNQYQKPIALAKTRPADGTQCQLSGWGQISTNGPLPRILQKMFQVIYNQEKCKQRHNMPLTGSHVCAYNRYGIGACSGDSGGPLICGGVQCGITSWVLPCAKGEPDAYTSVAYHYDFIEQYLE

[2] = target: Soli C1 (Solenopsis invicta)
[3] = target: Soli E1 (Solenopsis invicta)
[4] = target: Soli C2 (Solenopsis invicta)
Chain of Soli C2 (Solenopsis invicta) (main, as listed by the source): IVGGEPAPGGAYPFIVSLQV

Chain of Soli E1 (Solenopsis invicta) (main, as listed by the source): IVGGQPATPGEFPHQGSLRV
Chain of Soli C1 (Solenopsis invicta) (Q7SIG2 other isoform, or with tags, fused parts or gaps): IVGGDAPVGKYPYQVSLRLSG

IC50 [1]: 5.58 nM
IC50 [2]: 37 nM
IC50 [3]: 4.22 nM
IC50 [4]: 1.41 nM
B1: Soy Bean Trypsin Inhibitor I-S (protein, soybean, UniProt P01070 25-205, looked up)
chain: DFVLDNEGNPLENGGTYYILSDITAFGGIRAAPTGNERCPLTVVQSRNELDKGIGTIISSPYRIRFIAEGHPLSLKFDSFAVIMLCVGIPTEWSVVEDLPEGPAVKIGENKDAMDGWFRLERVSDDEFNNYKLVFCPQQAEDDKCGDIGISIDHDDGTRRLVVSKNKPLVVQFQKLDKESL

Reference: patent publication US6399759
